Test results published in patent publication US20230151091A1 (NEW YORK UNIVERSITY, published 2023).

T1: hFz: Fz domain and C-terminal flanking sequence of human MuSK (K314-T495) with C-terminal Avi- and His6-tags (human, UniProt O15146 314-495, biotinylated in vitro using the BirA enzyme)
T1 construct: also called human Fz; not shown: Avi- and His6-tags
T1 sequence: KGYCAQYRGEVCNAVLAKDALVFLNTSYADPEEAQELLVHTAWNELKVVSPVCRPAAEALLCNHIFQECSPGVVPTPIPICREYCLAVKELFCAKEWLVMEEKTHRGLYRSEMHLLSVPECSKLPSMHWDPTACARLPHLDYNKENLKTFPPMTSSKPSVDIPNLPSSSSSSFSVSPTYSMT

T2: mFz: Fz domain and C-terminal flanking sequence of mouse MuSK (D307 to T494) with C-terminal Avi- and … (mouse, UniProt Q61006 307-494, limits assumed, biotinylated in vitro using the BirA enzyme)
T2 construct: also called mouse Fz; not shown: Avi- and His6-tags
T2 sequence (looked up): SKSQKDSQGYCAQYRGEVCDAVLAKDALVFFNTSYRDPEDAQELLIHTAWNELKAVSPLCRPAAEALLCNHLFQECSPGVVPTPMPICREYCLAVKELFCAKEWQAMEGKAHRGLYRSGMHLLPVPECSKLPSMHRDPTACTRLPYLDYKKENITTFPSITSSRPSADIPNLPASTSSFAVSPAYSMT

T3: hECD: full-length extracellular region of human MuSK (E22 to T495) with C-terminal Avi- and His6-tags (human, UniProt O15146 22-495, biotinylated in vitro using the BirA enzyme)
T3 construct: also called human ECD; not shown: Avi- and His6-tags
T3 sequence: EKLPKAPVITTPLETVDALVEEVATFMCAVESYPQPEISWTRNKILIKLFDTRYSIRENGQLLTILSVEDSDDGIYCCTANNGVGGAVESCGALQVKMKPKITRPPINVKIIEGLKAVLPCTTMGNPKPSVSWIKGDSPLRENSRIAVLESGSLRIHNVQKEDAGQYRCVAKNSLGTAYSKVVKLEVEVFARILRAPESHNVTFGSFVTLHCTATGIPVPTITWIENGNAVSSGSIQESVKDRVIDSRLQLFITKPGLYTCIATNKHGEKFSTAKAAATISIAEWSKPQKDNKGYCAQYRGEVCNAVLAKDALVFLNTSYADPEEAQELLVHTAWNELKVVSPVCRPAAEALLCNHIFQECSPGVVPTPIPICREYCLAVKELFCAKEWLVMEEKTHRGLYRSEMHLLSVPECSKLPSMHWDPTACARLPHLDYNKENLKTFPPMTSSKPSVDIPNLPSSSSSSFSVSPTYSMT

T4: mECD: full-length extracellular region of mouse MuSK (E22 to T494) with C-terminal Avi- and His6-tags (mouse, UniProt Q61006 22-494, biotinylated in vitro using the BirA enzyme)
T4 construct: range 22-494; also called mouse ECD; not shown: Avi- and His6-tags
T4 sequence (looked up): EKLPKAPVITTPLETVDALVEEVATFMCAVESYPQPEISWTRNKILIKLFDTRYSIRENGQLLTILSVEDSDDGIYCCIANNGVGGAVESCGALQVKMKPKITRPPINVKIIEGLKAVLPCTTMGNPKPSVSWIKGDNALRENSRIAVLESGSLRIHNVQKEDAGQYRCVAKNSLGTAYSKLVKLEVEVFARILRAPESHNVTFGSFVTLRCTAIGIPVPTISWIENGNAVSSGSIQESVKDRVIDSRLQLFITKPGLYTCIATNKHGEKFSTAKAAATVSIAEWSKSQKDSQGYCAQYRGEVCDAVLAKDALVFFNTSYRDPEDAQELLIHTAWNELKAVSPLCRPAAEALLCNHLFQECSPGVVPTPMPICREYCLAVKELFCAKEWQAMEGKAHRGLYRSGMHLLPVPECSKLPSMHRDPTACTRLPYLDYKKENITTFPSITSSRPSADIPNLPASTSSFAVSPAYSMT

T5: mouse MuSK (mouse, UniProt Q61006 22-494, limits assumed)
T5 construct: Coated on ELISA plates or on the Biacore chip; also called full length mouse MuSK; mouse MuSK (in house produced in HEK293 cells)
T5 sequence (looked up): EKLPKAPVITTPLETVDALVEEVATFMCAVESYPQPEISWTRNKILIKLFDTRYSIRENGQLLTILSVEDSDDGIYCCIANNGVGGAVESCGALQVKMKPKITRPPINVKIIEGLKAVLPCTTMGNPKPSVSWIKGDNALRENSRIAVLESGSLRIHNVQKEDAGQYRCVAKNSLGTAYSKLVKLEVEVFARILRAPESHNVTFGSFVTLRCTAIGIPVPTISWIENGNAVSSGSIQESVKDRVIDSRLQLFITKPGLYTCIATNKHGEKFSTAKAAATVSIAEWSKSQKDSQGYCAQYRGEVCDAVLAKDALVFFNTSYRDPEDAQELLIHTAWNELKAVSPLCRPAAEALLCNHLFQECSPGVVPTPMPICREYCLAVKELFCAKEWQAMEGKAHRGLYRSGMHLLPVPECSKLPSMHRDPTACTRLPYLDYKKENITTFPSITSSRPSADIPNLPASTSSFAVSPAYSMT

T6: human MuSK (human, UniProt O15146 24-495)
T6 construct: Recombinant protein coated on ELISA plates (R&D Systems cat. 10189-MK) or on the Biacore chip; also called human muscle-specific tyrosine protein kinase; full length human MuSK
T6 sequence: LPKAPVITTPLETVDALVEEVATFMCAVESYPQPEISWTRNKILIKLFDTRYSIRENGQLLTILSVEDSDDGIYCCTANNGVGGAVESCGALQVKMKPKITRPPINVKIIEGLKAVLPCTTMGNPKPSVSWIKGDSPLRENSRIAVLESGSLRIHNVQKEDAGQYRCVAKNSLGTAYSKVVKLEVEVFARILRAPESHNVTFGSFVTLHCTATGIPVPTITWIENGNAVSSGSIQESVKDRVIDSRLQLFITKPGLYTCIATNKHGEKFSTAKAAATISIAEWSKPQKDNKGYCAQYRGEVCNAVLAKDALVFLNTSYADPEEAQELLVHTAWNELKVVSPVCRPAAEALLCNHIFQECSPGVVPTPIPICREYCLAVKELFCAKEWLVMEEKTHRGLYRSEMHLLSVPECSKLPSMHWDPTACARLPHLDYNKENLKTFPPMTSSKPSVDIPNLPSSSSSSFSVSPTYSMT


Tests used:
[1] = biological target: T1, hFz: Fz domain and C-terminal flanking …; assay: bead-binding titration, Fab format: antigen immobilized on streptavidin beads, MFI by flow cytometry, curve is the 1:1 fit
[2] = biological target: T2, mFz: Fz domain and C-terminal flanking …; assay: as above
[3] = biological target: T3, hECD: full-length extracellular region …; assay: bead-binding assay, Fab format: biotinylated antigen on streptavidin beads, flow cytometry, 1:1 fit; average ± s.d., n=3
[4] = biological target: T1, hFz: Fz domain and C-terminal flanking …; assay: as above
[5] = biological target: T4, mECD: full-length extracellular region …; assay: as above
[6] = biological target: T2, mFz: Fz domain and C-terminal flanking …; assay: as above
mouse MuSK [7] = biological target: T5, mouse MuSK; assay: Biacore T200, off rate at pH 5.5 against pH 7.4
Experimental: (§1) In order to study pH dependent binding of the antibodies described herein to MuSK, a Biacore T200 was used. Briefly, a CMS chip was coated with human and mouse MuSK (200RU) and 22.2 nM of Fab was applied and kinetic parameters calculated. Association was done at pH7.4, dissociation was done at pH 7.4 and also at pH 5.5. The following Fabs were tested, X2, X2m4, X3, X9, X17, 3B2 and 3B2g2m1 (Table 10 and FIG. 23). […] Binding affinity at pH 5.5 is very low, resulting in a rapid dissociation at endosomal pH allowing 3B2g2m1 to recycle.

human MuSK [8] = biological target: T6, human MuSK; assay: Biacore T200, off rate at pH 5.5 against pH 7.4
Experimental: as §1

mouse MuSK [9] = biological target: T5, mouse MuSK; assay: Biacore T200, MuSK on chip (200RU), 22.2 nM Fab, dissociation pH 7.4
Experimental: as §1

human MuSK [10] = biological target: T6, human MuSK; assay: as above
Experimental: as §1

mouse MuSK [11] = biological target: T5, mouse MuSK; assay: Biacore T200, MuSK on chip (200RU), 22.2 nM Fab, dissociation pH 5.5
Experimental: as §1

human MuSK [12] = biological target: T6, human MuSK; assay: as above
Experimental: as §1

[13] = biological target: T3, hECD: full-length extracellular region …; assay: bead-binding assay, IgG format: biotinylated antigen on streptavidin beads, flow cytometry, 1:1 fit; average ± s.d., n=3
[14] = biological target: T1, hFz: Fz domain and C-terminal flanking …; assay: as above
[15] = biological target: T4, mECD: full-length extracellular region …; assay: as above
[16] = biological target: T2, mFz: Fz domain and C-terminal flanking …; assay: as above
[17] = biological target: T4, mECD: full-length extracellular region …; assay: bead-binding titration, IgG format: antigen immobilized on streptavidin beads, MFI by flow cytometry, curve is the 1:1 fit
[18] = biological target: T2, mFz: Fz domain and C-terminal flanking …; assay: as above

| Binder | EC50 (read off the curve) [1] | EC50 (read off the curve) [2] | Kd [3] | Kd [4] | Kd [5] | Kd [6] | Ratio pH 5.5/7.4 of off rate (mouse MuSK [7]) | Ratio pH 5.5/7.4 of off rate (human MuSK [8]) | koff (mouse MuSK [9]) | koff (human MuSK [10]) | koff (mouse MuSK [11]) | koff (human MuSK [12]) | Kd [13] | Kd [14] | Kd [15] | Kd [16] | EC50 (read off the curve) [17] | EC50 (read off the curve) [18] |
| --- | --- | --- | --- | --- | --- | --- | --- | --- | --- | --- | --- | --- | --- | --- | --- | --- | --- | --- |
| X17 Fab (Fab, V domains shown, Fab format) VH: EVQLVESGGGLVQPGGSLRLSCAASGFTISYSSIHWVRQAPGKGLEWVASIYSSSGSTYYADSVKGRFTISADTSKNTAYLQMNSLRAEDTAVYYCARGDHGYYVFGYLGMDYWGQGTLVTVSS VL: DIQMTQSPSSLSASVGDRVTITCRASQSVSSAVAWYQQKPGKAPKLLIYSASSLYSGVPSRFSGSRSGTDFTLTISSLQPEDFATYYCQQSYKPGALITFGQGTKVEIK | ~0.4 nM | ~0.3 nM | 0.52 nM | 0.38 nM | 0.63 nM | 0.47 nM | 1.7 | 7.7 | 0.0012 s⁻¹ | 0.00088 s⁻¹ | 0.002 s⁻¹ | 0.00678 s⁻¹ |  |  |  |  |  |  |
| mIgG2a-X3 (antibody, V domains shown, mouse IgG2a format; also called X3 in mouse IgG2a format) VH: EVQLVESGGGLVQPGGSLRLSCAASGFTISSSSIHWVRQAPGKGLEWVASISSSSGYTYYADSVKGRFTISADTSKNTAYLQMNSLRAEDTAVYYCARSWYEMWMSGYFGFDYWGQGTLVTVSS VL: DIQMTQSPSSLSASVGDRVTITCRASQSVSSAVAWYQQKPGKAPKLLIYSASSLYSGVPSRFSGSRSGTDFTLTISSLQPEDFATYYCQQSSSSLITFGQGTKVEIK |  |  |  |  |  |  |  |  |  |  |  |  | 0.113 nM | 0.079 nM | 0.118 nM | 0.096 nM | ~0.1 nM | ~0.1 nM |
| hIgG1-X2 (antibody, V domains shown, human IgG1 Fc containing LALA mutations; also called hIgG-X2; X2 in the human IgG1 format) VH: EVQLVESGGGLVQPGGSLRLSCAASGFTVSSSSIHWVRQAPGKGLEWVASISSSYGSTSYADSVKGRFTISADTSKNTAYLQMNSLRAEDTAVYYCARSEGDRYVSGYMGMDYWGQGTLVTVSS VL: DIQMTQSPSSLSASVGDRVTITCRASQSVSSAVAWYQQKPGKAPKLLIYSASSLYSGVPSRFSGSRSGTDFTLTISSLQPEDFATYYCQQSGVWLITFGQGTKVEIK |  |  |  |  |  |  |  |  |  |  |  |  | 0.478 nM | 0.421 nM | 0.307 nM | 0.265 nM | ~0.4 nM | ~0.3 nM |
| hIgG1-X3 (antibody, V domains shown, human IgG1 Fc containing LALA mutations; also called X3 in human IgG1 format) VH: EVQLVESGGGLVQPGGSLRLSCAASGFTISSSSIHWVRQAPGKGLEWVASISSSSGYTYYADSVKGRFTISADTSKNTAYLQMNSLRAEDTAVYYCARSWYEMWMSGYFGFDYWGQGTLVTVSS VL: DIQMTQSPSSLSASVGDRVTITCRASQSVSSAVAWYQQKPGKAPKLLIYSASSLYSGVPSRFSGSRSGTDFTLTISSLQPEDFATYYCQQSSSSLITFGQGTKVEIK |  |  |  |  |  |  |  |  |  |  |  |  | 0.074 nM | 0.057 nM | 0.079 nM | 0.07 nM | ~0.08 nM | ~0.07 nM |
